Here are results for 167 variants from the RNAGym collection of RNA variant scans (doi:10.7554/elife.80360).

The chains are these.
B1: HDV Ribozyme (parent)
chain: GGCCGGCAUGGUCCCAGCCUCCUCGCUGGCGCCGGCUGGGCAACAUUCCGAGGGGACCGUCCCCUCGGUAAUGGCGAAUGGGACCCA

In this data set the parent is B1. The data set can be described thus: self-cleavage, relative activity (ratio to wild type); higher = more cleavage; co-transcriptional.
In the case of C32U A83C, the self-cleavage is 0.232. In the case of G35A C84G it was 0.45; in that of C48U A71G, 1.03. As to C22A U79G, the self-cleavage is 0.0573. For A42U G80A, the self-cleavage was 0.16. Then U12C A87U, with 0.396; and G10C A51C, with 0.665. Consider G11C C22G, for which the self-cleavage came out at 0.0386. Then G5U A87C, with 0.277.

G6A G11A: the self-cleavage was 0.128. In the case of G38C A87C it was 0.26.

Regarding G2U C84A, the self-cleavage was determined as 0.0219.

With A42C C85A, the self-cleavage worked out at 0.18. Consider C4A A16G, for which the self-cleavage worked out at 0.344. Take C4A A16C: the self-cleavage amounted to 0.0339.

As for C36G G67U, the self-cleavage came out at 0.0361. In the case of G17C G39U it was 0.108.

Turning to U9G G40C, the self-cleavage was determined as 0.437. On to G74A A87C, for which the self-cleavage was determined as 0.583.

Consider G53C G76C, for which the self-cleavage was determined as 0.991. Consider C30U C57U, for which the self-cleavage amounted to 0.932. C19G C21U: the self-cleavage worked out at 0.122. On to G53C C75G, for which the self-cleavage was determined as 0.0627.

With G25C G29C, the self-cleavage is 0.0489. Take G68A A78U: the self-cleavage is 0.277.

As to C49A C66A, the self-cleavage amounted to 0.786.

With C7G U12G, the self-cleavage worked out at 0. As to U69G A87U, the self-cleavage worked out at 1.06.

In the case of C58A G81A, the self-cleavage was found to be 0.514. On to A42G A78G, for which the self-cleavage was 0. For G28A C44A, the self-cleavage is 0.104. As for G10C G54A, the self-cleavage amounted to 0.831. For the variant C4U G53U, the self-cleavage is 0.831.

On to G54C G55A, for which the self-cleavage is 1.08. With C41U G76C, the self-cleavage turned out to be 0.861.

As for A45C A51U, the self-cleavage came out at 0.72. Turning to G1C U69C, the self-cleavage is 0.158. In the case of G82A A83C, the self-cleavage is 0.451. Turning to U9G G53U, the self-cleavage was 1.1. As for C63G A78U, the self-cleavage was 0.185. Take C18U C58U: the self-cleavage came out at 0.554. For G67U A87C, the self-cleavage turned out to be 0.925. Take C32U U60A: the self-cleavage stood at 0.782. As for G52A G76A, the self-cleavage was determined as 1.05. Turning to A8C U46A, the self-cleavage stood at 0.217. For the variant C66G A77C, the self-cleavage was 0.262. Take C41U A71G: the self-cleavage was 1.06. Then G59U C64A, with 0.899; and A16U U46G, with 0.437.

For G6C G74C, the self-cleavage worked out at 0.

As to C30G C63A, the self-cleavage came out at 0.229. In the case of A16U A56U, the self-cleavage came out at 1.15.

For the variant C24U G40U, the self-cleavage is 0.337. Consider C61A C85U, for which the self-cleavage came to 1.05. Consider G35A G55C, for which the self-cleavage worked out at 0.358. As for A16G G38U, the self-cleavage was determined as 0.341. C14A G82C: the self-cleavage came to 0.172. As for U12A C19A, the self-cleavage came to 0.0287. Regarding G6U C18A, the self-cleavage stood at 0.131.

For the variant C19U G35U, the self-cleavage worked out at 0.0519. On to C26G C64G, for which the self-cleavage was 0.787. Regarding A51U A56G, the self-cleavage was determined as 1.11. As to C48A G59A, the self-cleavage was found to be 1.22. Consider U20A C24A, for which the self-cleavage came to 0.0415. Regarding G53A C85G, the self-cleavage turned out to be 0.923.

For the variant C64A A83G, the self-cleavage was 0.857. In the case of C22U C57A, the self-cleavage was 0.846. For G40C C63G, the self-cleavage came out at 0.138.

With G1A G39A, the self-cleavage turned out to be 0.141.

As for G5U C22A, the self-cleavage was found to be 0.0415.

Take C30G C66G: the self-cleavage came out at 0.0326. Then A45U C49U, with 0.706. As to G73C U79A, the self-cleavage worked out at 0.302. As for A45U G76U, the self-cleavage was 0.652. As to G38U G54C, the self-cleavage worked out at 0.4. Regarding U27G A43U, the self-cleavage was 0.415. Consider G5C G53C, for which the self-cleavage was found to be 0.237.

On to G40C C41G, for which the self-cleavage amounted to 0.222.

On to C7U C58A, for which the self-cleavage stood at 0.88.

With C33G C66A, the self-cleavage turned out to be 0.198. Consider G2A G5U, for which the self-cleavage worked out at 0.0453.

G5U C85G: the self-cleavage was found to be 0.289.

On to C30G G55A, for which the self-cleavage amounted to 0.0852.

Regarding C32U C61G, the self-cleavage was 0.791. Then G54C C64G, with 0.787. With G35A U65G, the self-cleavage amounted to 0.554. In the case of C75U C85G it was 0.122; in that of U23A U47A, 0.877; in that of C44G G52A, 0.636. In the case of G11C G40U it was 0.189; in that of G10A C13U, 0.179; in that of G10U C18A, 0.0175. U9A G82C: the self-cleavage stood at 0.332. On to C3U A87G, for which the self-cleavage came out at 0.752. Then C13A G17C, with 0.

As to G35U U47G, the self-cleavage is 0.295. In the case of G11U C18A it was 0.0674; in that of C66U G74A, 0.451. As to G38U G55C, the self-cleavage came to 0.19.

As for U69G G81A, the self-cleavage was 0.469. As for U46G U79C, the self-cleavage worked out at 0.0519. Then C3A G67A, with 0.462; and A8G G73C, with 0.437; and C18G G34A, with 0.136. Take G29C C64U: the self-cleavage amounted to 0.0594.

G10U G53A: the self-cleavage is 0.769.

Consider U9G A42G, for which the self-cleavage was determined as 0.727.

C21G C30A: the self-cleavage stood at 0. Regarding C26G G67U, the self-cleavage came out at 0.665.

For G40U A83U, the self-cleavage is 0.0936. Then G29C G52A, with 0.0615. For the variant C48U C63G, the self-cleavage worked out at 0.542.

Turning to G39A C44A, the self-cleavage was found to be 0.0405. Take G76A C86U: the self-cleavage was found to be 0.92. As for C24G C84A, the self-cleavage was 0.123. As for C14G C32A, the self-cleavage was 0.0554. Consider U27A G54C, for which the self-cleavage came out at 0.707. G11A C26G: the self-cleavage came to 0.99.

Consider G54A A70U, for which the self-cleavage came to 0.843. With C15G G55A, the self-cleavage was found to be 0.522. In the case of U12A C62U, the self-cleavage is 0.252.

For G39A U47C, the self-cleavage stood at 0.208.

In the case of U23C A45C, the self-cleavage amounted to 0.573. Take C58A U79C: the self-cleavage amounted to 0.554.

Take C66A G82U: the self-cleavage was determined as 0.36. In the case of A43G C75A, the self-cleavage amounted to 0.172.

For C57G G67A, the self-cleavage worked out at 0.909.

Consider A8G U79G, for which the self-cleavage turned out to be 0.332.

As to C3A C14G, the self-cleavage was found to be 0.17.

Turning to G38A C49G, the self-cleavage was found to be 0.151. On to G29A U79G, for which the self-cleavage came out at 0.154. Then C58A A87G, with 1.11.

In the case of C36G G81C, the self-cleavage amounted to 0.0656. In the case of A45G A51U it was 0.944.

For the variant U27A U79G, the self-cleavage stood at 0.831.

For the variant G17U G38U, the self-cleavage was 0.0369. A16U C85G: the self-cleavage was 1.03. Turning to C41A G54A, the self-cleavage is 1.01. Then G34A G38A, with 0.0583; and C21A G54C, with 0.0804. As for C26A C66A, the self-cleavage stood at 0.909. Regarding G53C G59C, the self-cleavage came to 0.958. In the case of G1U U46G it was 0.259; in that of G17A G53U, 0.718; in that of A8G C44A, 0.665. With C22U G50A, the self-cleavage was 0.745. For the variant G28A G50U, the self-cleavage is 0.132. Consider U65C G82C, for which the self-cleavage was determined as 0.252. A43C C61A: the self-cleavage turned out to be 0.306. Consider G31A A83G, for which the self-cleavage turned out to be 0.228. Then U65A C84U, with 0.799. With C19A A43U, the self-cleavage stood at 0.0222. For the variant A8U G53C, the self-cleavage worked out at 1.01. Regarding C36U A56G, the self-cleavage amounted to 0.628.

For C14A C58A, the self-cleavage was 1.17. As to G76C U79C, the self-cleavage was found to be 0.643. On to G17C A70C, for which the self-cleavage amounted to 0.0536. On to C19G G73A, for which the self-cleavage was found to be 0.021. As for C36G A78G, the self-cleavage is 0.0639.

For C7U C32U, the self-cleavage amounted to 0.394. Then U23C G52C, with 1.01; and G40A U60G, with 0.916.

As to C41A G53C, the self-cleavage was 0.848. For G31A U72A, the self-cleavage was 0.0292. Then C21A U79C, with 0.111. C49U A83G: the self-cleavage was 0.883. With G6C U69A, the self-cleavage came out at 0.208.
